# Test results taken from patent publication US20110086806A1 (published 2011).
# T1: recombinant human IL-23R/Fc chimera (R&D Systems) (human, UniProt Q5VWK5 24-355)
# T1 construct: Bought; also called rhIL23RFc
# T1 sequence (looked up): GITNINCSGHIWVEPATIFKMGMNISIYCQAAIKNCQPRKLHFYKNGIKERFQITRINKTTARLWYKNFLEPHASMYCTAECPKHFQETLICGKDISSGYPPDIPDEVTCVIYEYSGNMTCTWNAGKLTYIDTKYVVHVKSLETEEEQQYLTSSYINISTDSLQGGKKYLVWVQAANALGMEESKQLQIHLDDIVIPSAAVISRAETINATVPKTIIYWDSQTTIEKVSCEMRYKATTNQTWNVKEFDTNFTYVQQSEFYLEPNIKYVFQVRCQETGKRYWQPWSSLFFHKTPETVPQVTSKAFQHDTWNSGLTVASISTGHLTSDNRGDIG
# Target: T1, recombinant human IL-23R/Fc chimera …
# Assay: SPR
# Protocol: A Biacore 3000 biosensor (GE Healthcare) was used to evaluate the interaction of human IL-23R and receptor binders. Immobilization of an anti-human IgG Fc antibody (GE Healthcare) to the CM5 chip (GE Healthcare) was performed using standard amine coupling chemistry, and this modified surface was used to capture a recombinant human IL-23R/Fc fusion protein (R&D Systems). A low-density receptor surface, less than 200 RU, was used for all of the analyses. ATRIMER™ polypeptide complex dilutions (1-500 nM) were injected over the IL-23R surface at 30 μl/min and kinetic constants were derived from the sensorgram data using the Biaevaluation software (version 3.1, GE Healthcare). Data collection was 3 minutes for the association and 5 minutes for dissociation. The anti-human IgG surface was regenerated with a 30s pulse of 3M magnesium chloride. All sensorgrams were double-referenced against an activated and blocked flow-cell as well as buffer injections.
Binder,Ka,Kd,koff,kon
"001-69.4D4 monomeric CTLD (designed binder, C-terminal tag not specified) ALQTVCLKGTKVHMKCFLAFTQTKTFHEASEDCISRGGTLSTPQTGSENDALYEYLRQSVGNEAEIWLGLNGSVRGRTWVDMTGARIAYKNWETEITAQPDGGIGVWGENCAVLSGAANGKWFDKRCRDQLPYICQFGIV",6.76e+06 M⁻¹,148 nM,0.00419 s⁻¹,28300 M⁻¹ s⁻¹
001-89.C7F monomeric CTLD (designed binder) ALQTVCLKGTKVHMKCFLAFTQTKTFHEASEDCISRGGTLSTPQTGSENDALYEYLRQSVGNEAEIWLGLNGSLLTGLWVDMTGARIAYKNWETEITAQPDGGYGAWGENCAVLSGAANGKWFDKRCRDQLPYICQFGIV,6.75e+06 M⁻¹,148 nM,0.00531 s⁻¹,35800 M⁻¹ s⁻¹
"001-69.3C2 monomeric CTLD (designed binder, C-terminal tag not specified) ALQTVCLKGTKVHMKCFLAFTQTKTFHEASEDCISRGGTLSTPQTGSENDALYEYLRQSVGNEAEIWLGLNTNVTRTLWVDMTGARIAYKNWETEITAQPDGGLGVWGENCAVLSGAANGKWFDKRCRDQLPYICQFGIV",5.39e+06 M⁻¹,186 nM,0.00741 s⁻¹,39900 M⁻¹ s⁻¹
"001-89.C3C monomeric CTLD (designed binder, C-terminal tag not specified) ALQTVCLKGTKVHMKCFLAFTQTKTFHEASEDCISRGGTLSTPQTGSENDALYEYLRQSVGNEAEIWLGLNANRRRTMWVDMTGARIAYKNWETEITAQPDGGMGVWGENCAVLSGAANGKWFDKRCRDQLPYICQFGIV",5.34e+06 M⁻¹,187 nM,0.0158 s⁻¹,84500 M⁻¹ s⁻¹
"001-89.C12E monomeric CTLD (designed binder, C-terminal tag not specified) ALQTVCLKGTKVHMKCFLAFTQTKTFHEASEDCISRGGTLSTPQTGSENDALYEYLRQSVGNEAEIWLGLNWTKRTALWVDMTGARIAYKNWETEITAQPDGGMFGMGENCAVLSGAANGKWFDKRCRDQLPYICQFGIV",5.62e+06 M⁻¹,178 nM,0.0074 s⁻¹,41600 M⁻¹ s⁻¹
"001-69.4F5 monomeric CTLD (designed binder, C-terminal tag not specified; not shown: Also the vector's N-terminal AGGGS after the pelB signal) ALQTVCLKGTKVHMKCFLAFTQTKTFHEASEDCISRGGTLSTPQTGSENDALYEYLRQSVGNEAEIWLGLNVLGWRREWVDMTGARIAYKNWETEITAQPDGGLVMPMENCAVLSGAANGKWFDKRCRDQLPYICQFGIV",4.12e+06 M⁻¹,243 nM,0.00571 s⁻¹,23500 M⁻¹ s⁻¹
"001-87.A4A monomeric CTLD (designed binder, C-terminal tag not specified) ALQTVCLKGTKVHMKCFLAFTQTKTFHEASEDCISRGGTLSTPQTGSENDALYEYLRQSVGNEAEIWLGLNWTLAKNLWVDMTGARIAYKNWETEITAQPDGGLFGRGENCAVLSGAANGKWFDKRCRDQLPYICQFGIV",5.18e+06 M⁻¹,193 nM,0.0229 s⁻¹,118000 M⁻¹ s⁻¹
"001-69.4G8 monomeric CTLD (designed binder, C-terminal tag not specified; not shown: C-terminal tag: 6xHis (pANA1), HA-His (pANA3) or HA-StrepII (pANA12)) ALQTVCLKGTKVHMKCFLAFTQTKTFHEASEDCISRGGTLSTPQTGSENDALYEYLRQSVGNEAEIWLGLNGSRRSGVWVDMTGARIAYKNWETEITAQPDGGFGVFGENCAVLSGAANGKWFDKRCRDQLPYICQFGIV",1.83e+07 M⁻¹,54 nM,0.00783 s⁻¹,143000 M⁻¹ s⁻¹
"001-87.A8E monomeric CTLD (designed binder, C-terminal tag not specified) ALQTVCLKGTKVHMKCFLAFTQTKTFHEASEDCISRGGTLSTPQTGSENDALYEYLRQSVGNEAEIWLGLNANPAQDLWVDMTGARIAYKNWETEITAQPDGGFGVWGENCAVLSGAANGKWFDKRCRDQLPYICQFGIV",7.09e+06 M⁻¹,141 nM,0.00757 s⁻¹,53700 M⁻¹ s⁻¹
"001-87.A9E monomeric CTLD (designed binder, C-terminal tag not specified) ALQTVCLKGTKVHMKCFLAFTQTKTFHEASEDCISRGGTLSTPQTGSENDALYEYLRQSVGNEAEIWLGLNGSALTNTWVDMTGARIAYKNWETEITAQPDGGLGYWGENCAVLSGAANGKWFDKRCRDQLPYICQFGIV",9.29e+06 M⁻¹,108 nM,0.0041 s⁻¹,38100 M⁻¹ s⁻¹
"001-69.4E5 monomeric CTLD (designed binder, C-terminal tag not specified; not shown: Also the vector's N-terminal AGGGS after the pelB signal) ALQTVCLKGTKVHMKCFLAFTQTKTFHEASEDCISRGGTLSTPQTGSENDALYEYLRQSVGNEAEIWLGLNGNPSGSVWVDMTGARIAYKNWETEITAQPDGGYGVWGENCAVLSGAANGKWFDKRCRDQLPYICQFGIV",2.82e+06 M⁻¹,355 nM,0.0161 s⁻¹,45400 M⁻¹ s⁻¹

# Now from value to binder:
Ka,Kd,koff,kon,Binder
4.11e+07 M⁻¹,24.3 nM,0.00415 s⁻¹,170000 M⁻¹ s⁻¹,"001-87.A5F monomeric CTLD (designed binder, not shown: small tags and cut ends, C-terminal tag not specified) ALQTVCLKGTKVHMKCFLAFTQTKTFHEASEDCISRGGTLSTPQTGSENDALYEYLRQSVGNEAEIWLGLNGSVRSATWVDMTGARIAYKNWETEITAQPDGGFGYFGENCAVLSGAANGKWFDKRCRDQLPYICQFGIV"
1.2e+08 M⁻¹,8.34 nM,0.000483 s⁻¹,57900 M⁻¹ s⁻¹,"001-89.C3C ATRIMER complex (designed binder, not shown: C-terminal tag: His/Myc (pANA4) or HA-StrepII (pANA10)) EPPTQKPKKIVNAKKDVVNTKMFEELKSRLDTLAQEVALLKEQQALQTVCLKGTKVHMKCFLAFTQTKTFHEASEDCISRGGTLSTPQTGSENDALYEYLRQSVGNEAEIWLGLNANRRRTMWVDMTGARIAYKNWETEITAQPDGGMGVWGENCAVLSGAANGKWFDKRCRDQLPYICQFGIV"
1.24e+08 M⁻¹,8.08 nM,0.000409 s⁻¹,50600 M⁻¹ s⁻¹,"001-87.A4A ATRIMER complex (designed binder, not shown: C-terminal tag: His/Myc (pANA4) or HA-StrepII (pANA10)) EPPTQKPKKIVNAKKDVVNTKMFEELKSRLDTLAQEVALLKEQQALQTVCLKGTKVHMKCFLAFTQTKTFHEASEDCISRGGTLSTPQTGSENDALYEYLRQSVGNEAEIWLGLNWTLAKNLWVDMTGARIAYKNWETEITAQPDGGLFGRGENCAVLSGAANGKWFDKRCRDQLPYICQFGIV"
1.94e+08 M⁻¹,5.15 nM,0.000478 s⁻¹,92800 M⁻¹ s⁻¹,"056-41.B9B ATRIMER complex (designed binder, not shown: C-terminal tag: His/Myc (pANA4) or HA-StrepII (pANA10)) EPPTQKPKKIVNAKKDVVNTKMFEELKSRLDTLAQEVALLKEQQALQTVCLKGTKVHMKCFLAFTQTKTFHEASEDCISRGGTLSTPQTGSENDALYEYLRQSVGNEAEIWLGLNAPPDLGLWVDMTGARIAYKNWETEITAQPDGGWGVWGENCAVLSGAANGKWFDKRCRDQLPYICQFGIV"
2.1e+08 M⁻¹,4.76 nM,0.000751 s⁻¹,158000 M⁻¹ s⁻¹,"001-69.4G8 ATRIMER complex, mammalian-cell produced (designed binder, not shown: small tags and cut ends, Homotrimer of this chain (ATRIMER complex); produced in HEK293 cells, glycosylation possible., Mammalian-cell produced material; also called 4G8 m; 4G8 TN m) EPPTQKPKKIVNAKKDVVNTKMFEELKSRLDTLAQEVALLKEQQALQTVCLKGTKVHMKCFLAFTQTKTFHEASEDCISRGGTLSTPQTGSENDALYEYLRQSVGNEAEIWLGLNGSRRSGVWVDMTGARIAYKNWETEITAQPDGGFGVFGENCAVLSGAANGKWFDKRCRDQLPYICQFGIV"
2.19e+08 M⁻¹,4.57 nM,0.0007 s⁻¹,153000 M⁻¹ s⁻¹,"001-87.A5F ATRIMER complex (designed binder, Homotrimer of this chain (ATRIMER complex)., also called Atrimer A5F; not shown: A possible extra N-terminal Ser from the ompA junction is left out) EPPTQKPKKIVNAKKDVVNTKMFEELKSRLDTLAQEVALLKEQQALQTVCLKGTKVHMKCFLAFTQTKTFHEASEDCISRGGTLSTPQTGSENDALYEYLRQSVGNEAEIWLGLNGSVRSATWVDMTGARIAYKNWETEITAQPDGGFGYFGENCAVLSGAANGKWFDKRCRDQLPYICQFGIV"
4.47e+08 M⁻¹,2.24 nM,0.000545 s⁻¹,244000 M⁻¹ s⁻¹,"056-41.B12F ATRIMER complex (designed binder, Homotrimer of this chain (ATRIMER complex)., not shown: A possible extra N-terminal Ser from the ompA junction is left out) EPPTQKPKKIVNAKKDVVNTKMFEELKSRLDTLAQEVALLKEQQALQTVCLKGTKVHMKCFLAFTQTKTFHEASEDCISRGGTLSTPQTGSENDALYEYLRQSVGNEAEIWLGLNGSVRSATWVDMTGARIAYKNWETEITAQPDGGYGVFGENCAVLSGAANGKWFDKRCRDQLPYICQFGIV"

# Target: T1, recombinant human IL-23R/Fc chimera …
# Assay: competition ELISA vs IL-23
# Protocol: Assays were performed generally as follows. Individual wells in Immulon HB2 plates were incubated overnight at 4° C. with 100 μL PBS containing 100 ng of an anti-human IgG Fc (R&D MAB 110 clone 97924). Plates were washed five times with PBS/0.05% Tween 20, and wells were incubated for 1.5 h at RT with 100 μL each of PBS containing 50 ng of recombinant human IL-23R/Fc. […] Competitor was included at a final concentration of 1 μg/mL. After incubation, plates were washed as described and wells were incubated for 40 min at RT with 100 μL each of PBS containing a 1:5000 dilution of streptavidin-HRP conjugate (Pierce catalog no. 21130). After washing, wells were incubated with 100 μL each of TMB (BioFX Lab catalog no. TMBH-1000-0) for up to 30 min at RT. Reactions were stopped with an equal volume of 0.2 M sulfuric acid.
row,Ratio IC50 to 056-53.H4E IC50,Binder
1,4.3,"105-08-1A10 ATRIMER complex (designed binder, not shown: C-terminal tag: His/Myc (pANA4) or HA-StrepII (pANA10)) EPPTQKPKKIVNAKKDVVNTKMFEELKSRLDTLAQEVALLKEQQALQTVCLKGTKVHMKCFLAFTQTKTFHEASEDCISRGGTLSTPQTGSENDALYEYLRQSVGNEAEIWLGLNGSSITDTWVDMTGARIAYKNWETEITAQPDGGWGYFGENCAVLSGAANGKWFDKRCRDQLPYICQFGIV"
2,2.9,"105-08-1A7 ATRIMER complex (designed binder, ATRIMER complex: homotrimer of three copies of this chain, joined by the tetranectin coiled coil, not shown: C-terminal tag: Myc/His (pANA4) or HA-StrepII (pANA10)) EPPTQKPKKIVNAKKDVVNTKMFEELKSRLDTLAQEVALLKEQQALQTVCLKGTKVHMKCFLAFTQTKTFHEASEDCISRGGTLSTPQTGSENDALYEYLRQSVGNEAEIWLGLNGSVRTNTWVDMTGARIAYKNWETEITAQPDGGFGYFGENCAVLSGAANGKWFDKRCRDQLPYICQFGIV"
